In article PMC7615117, “DNSN-1 recruits GINS for CMG helicase assembly during DNA replication initiation in C. elegans” (Science (New York, N.Y.), 2023):
Values belong to the binder of their own block, whether it stands above or below them.

Legend:
Assay in all cases: cryo-EM structure; CMG (125 nM) with fork DNA, AMP-PNP, TIM-1/TIPN-1 and DNSN-1 isoform c (each 1.3-fold molar excess), GraFix gradient with glutaraldehyde and BS3
Details in all cases: both partners purified
[1] = molecular target: T1, MCM-3 (C. elegans, UniProt Q9XVR7 1-812)
T1 construct: MCM-3, C. elegans; Subunit of m11, written alone for its contacts in the structure; also called MCM-3 subunit of MCM-2-7; source: S. cerevisiae, purified as part of recombinant CMG
T1 sequence: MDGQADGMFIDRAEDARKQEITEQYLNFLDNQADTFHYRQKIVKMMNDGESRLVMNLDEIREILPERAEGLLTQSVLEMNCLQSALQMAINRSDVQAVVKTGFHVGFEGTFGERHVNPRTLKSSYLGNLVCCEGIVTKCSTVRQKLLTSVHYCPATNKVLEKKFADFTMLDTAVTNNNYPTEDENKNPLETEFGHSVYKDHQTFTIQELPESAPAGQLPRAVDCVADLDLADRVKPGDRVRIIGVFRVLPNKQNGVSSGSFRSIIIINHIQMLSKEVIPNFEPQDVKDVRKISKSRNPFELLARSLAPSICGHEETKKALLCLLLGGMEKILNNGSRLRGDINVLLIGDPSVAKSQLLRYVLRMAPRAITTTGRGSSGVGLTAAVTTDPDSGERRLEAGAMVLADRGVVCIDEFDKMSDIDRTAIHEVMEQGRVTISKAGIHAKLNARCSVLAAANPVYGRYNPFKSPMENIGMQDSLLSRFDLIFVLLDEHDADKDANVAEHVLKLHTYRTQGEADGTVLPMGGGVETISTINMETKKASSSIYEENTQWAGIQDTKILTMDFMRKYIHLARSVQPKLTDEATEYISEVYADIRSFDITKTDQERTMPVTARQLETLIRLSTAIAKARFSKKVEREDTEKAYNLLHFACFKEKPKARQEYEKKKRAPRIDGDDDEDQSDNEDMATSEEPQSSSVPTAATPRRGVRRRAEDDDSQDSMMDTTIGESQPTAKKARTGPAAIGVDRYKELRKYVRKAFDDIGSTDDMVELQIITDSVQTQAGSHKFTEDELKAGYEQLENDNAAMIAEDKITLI

[2] = molecular target: T2, MCM-4 (C. elegans, UniProt Q95XQ8 1-823)
T2 construct: MCM-4, C. elegans; Subunit of m11, written alone for its interfaces in the structure; source: S. cerevisiae, purified as part of recombinant CMG
T2 sequence: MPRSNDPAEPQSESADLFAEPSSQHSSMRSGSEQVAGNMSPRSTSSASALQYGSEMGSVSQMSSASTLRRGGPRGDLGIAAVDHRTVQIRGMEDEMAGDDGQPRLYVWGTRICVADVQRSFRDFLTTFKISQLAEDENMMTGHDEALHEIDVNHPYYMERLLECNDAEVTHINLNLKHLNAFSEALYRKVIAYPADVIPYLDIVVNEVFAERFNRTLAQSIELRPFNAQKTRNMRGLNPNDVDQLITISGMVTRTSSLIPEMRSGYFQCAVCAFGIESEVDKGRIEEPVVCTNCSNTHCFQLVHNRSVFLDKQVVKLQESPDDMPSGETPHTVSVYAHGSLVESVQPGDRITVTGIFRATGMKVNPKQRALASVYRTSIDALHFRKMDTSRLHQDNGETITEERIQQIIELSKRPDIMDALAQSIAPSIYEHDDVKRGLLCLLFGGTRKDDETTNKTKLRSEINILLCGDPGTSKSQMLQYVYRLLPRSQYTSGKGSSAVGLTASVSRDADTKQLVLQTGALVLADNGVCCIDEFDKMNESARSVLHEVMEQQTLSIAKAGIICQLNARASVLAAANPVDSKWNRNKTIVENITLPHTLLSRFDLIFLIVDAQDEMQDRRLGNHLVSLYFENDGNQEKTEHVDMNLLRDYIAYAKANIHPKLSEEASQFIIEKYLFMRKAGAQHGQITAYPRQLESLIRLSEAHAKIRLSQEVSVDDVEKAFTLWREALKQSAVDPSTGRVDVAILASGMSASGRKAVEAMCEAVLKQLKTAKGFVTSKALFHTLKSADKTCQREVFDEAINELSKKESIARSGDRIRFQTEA

[3] = molecular target: T3, TIM-1 (C. elegans, UniProt G5EDN3 1-1353)
T3 construct: TIM-1, C. elegans; Chain of m13, written alone for its contacts in the structure; source: S. cerevisiae, purified as part of the TIM-1_TIPN-1 complex
T3 sequence: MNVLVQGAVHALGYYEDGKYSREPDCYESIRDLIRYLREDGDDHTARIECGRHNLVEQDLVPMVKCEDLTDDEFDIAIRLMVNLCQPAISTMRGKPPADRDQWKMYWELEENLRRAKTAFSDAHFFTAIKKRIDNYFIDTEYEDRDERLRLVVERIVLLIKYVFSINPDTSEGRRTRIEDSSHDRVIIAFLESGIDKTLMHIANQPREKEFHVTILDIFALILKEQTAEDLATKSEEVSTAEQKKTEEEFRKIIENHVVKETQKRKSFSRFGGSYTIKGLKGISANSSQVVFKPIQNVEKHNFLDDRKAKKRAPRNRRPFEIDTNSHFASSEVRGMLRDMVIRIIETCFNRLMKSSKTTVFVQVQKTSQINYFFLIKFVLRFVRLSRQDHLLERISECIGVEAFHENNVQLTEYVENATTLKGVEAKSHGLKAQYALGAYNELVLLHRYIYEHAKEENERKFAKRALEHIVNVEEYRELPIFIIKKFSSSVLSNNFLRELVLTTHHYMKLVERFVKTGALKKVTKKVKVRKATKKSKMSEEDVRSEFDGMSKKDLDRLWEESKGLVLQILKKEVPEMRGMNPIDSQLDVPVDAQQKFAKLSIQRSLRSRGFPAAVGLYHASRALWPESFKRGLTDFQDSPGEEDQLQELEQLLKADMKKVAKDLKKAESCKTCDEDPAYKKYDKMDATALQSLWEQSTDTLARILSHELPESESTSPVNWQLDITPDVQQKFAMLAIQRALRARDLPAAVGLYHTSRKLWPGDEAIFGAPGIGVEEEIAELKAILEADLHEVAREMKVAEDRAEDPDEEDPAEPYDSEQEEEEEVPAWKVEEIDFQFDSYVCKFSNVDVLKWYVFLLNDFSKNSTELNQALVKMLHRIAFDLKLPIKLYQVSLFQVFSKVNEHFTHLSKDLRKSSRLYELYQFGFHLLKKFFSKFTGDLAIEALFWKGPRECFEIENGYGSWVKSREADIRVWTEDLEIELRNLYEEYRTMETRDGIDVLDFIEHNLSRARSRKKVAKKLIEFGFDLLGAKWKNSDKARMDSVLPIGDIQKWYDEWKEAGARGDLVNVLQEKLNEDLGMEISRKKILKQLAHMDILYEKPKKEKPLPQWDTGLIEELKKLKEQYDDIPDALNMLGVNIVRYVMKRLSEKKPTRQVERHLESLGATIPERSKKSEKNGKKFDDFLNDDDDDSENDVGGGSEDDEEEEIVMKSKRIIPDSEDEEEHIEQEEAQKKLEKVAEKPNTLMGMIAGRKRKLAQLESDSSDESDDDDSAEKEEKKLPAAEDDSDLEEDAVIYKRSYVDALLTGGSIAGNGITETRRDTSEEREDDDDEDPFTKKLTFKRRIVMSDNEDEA

binding result [1]: binds
B1: MCM-5 (natural protein, C. elegans)
chain: MSNLDNPGIYYQERFFANDGVPDTGRELIAEYRQLITQFRNFIRDFSTGGFGMIYRDQLKRNYFSHEYRLEINLNHLKNFDEDIEMKLRKFPGKVLPALEEAAKIVADEITTPRPKGEEKLHDIQVTLTLDEYPTSLRQVKSAQVSQVVKISGIIVAAAQVRSKATKVTLQCRQCKHTIPDVSIKPGLEGFALPRTCAAPQQGQMQRCPIDPYIMLPDKCECVDYQTLKLQENPEDVPHGEMPRHLQLFTERYLTDKVVPGNRVTIVGVYSIKKLIQKKGGDKSLQGIRTPYLRVLGIHMETSGPGRTNFTTFTPEEERMFKTLAQRKDAYELIAKSIAPSIYGSADIKKSIACLLFGGARKKLPDGITRRGDINVLLLGDPGTAKSQLLKFVEQVSPIGVYTSGKGSSAAGLTASVIRDPQSRSFIMEGGAMVLADGGVVCIDEFDKMREDDRVAIHEAMEQQTISIAKAGITTTLNSRCSVLAAANSVYGRWDESRGDDNIDFMPTILSRFDMIYIVKDTHDVLKDATLAKHVIEVHVNASAAKERDIAGVPKTATTDSDGVMTMFDTDGFLTIEFLKKFVTYARLNCGPRLTPQASEKLVNHYVKMRNPVVNADAFKSGKKAHNSAIPITVRQLEAIVRIAESIAKMELQQFATDKHVEEALRLFRVSTIEAAATGNLAGVEGFTSTADQEALNRIEVQMKKRFAIGTHVSEHLIVQDFVARQHYRESLVKKVIDNLVRRGDLQQKMQRKMLYRVR
notes: MCM-5, C. elegans; Subunit of m11, written alone for its interface in the structure; source: S. cerevisiae, purified as part of recombinant CMG

binding result [2]: binds
B2: MCM-6 (natural protein, C. elegans)
chain: MDNIIGGQAQQVEDTDGTRVQNEFSKFLKSFKDQKNEFIYKSAMKELVQPEKNTIFINMQHLYKFSNNLATTIELQYYRVYPFMCEALHLATLDACDESERQQMFKKQLYVSLFNLDAKTKVRELSADKVGGLVRIAGQIVRTHPVHPELSRACFVCEDCGVTTRDVQQQFRYTQPTKCANPQCMNRTRFSLDVNSSTFVDFQKIRIQETQAELPRGSIPRTVDVIVRGEMVETVQPGDKCDIVGTLIVIPDIAQLSTPGLRAETSNQNRGRATDKSEGITGLKALGVRDLTYKMAFLACHIQQTESLVGGDASGAVEETDYLDLWSKMSTEDRATLKKMSDDKKIEKNIVDSLFPNIYGNHEVKLGVLLMLLGGVAKKSRDEGTSLRGDINVCLVGDPSTAKSQVLKAVEEFSPRAIYTSGKASSAAGLTAAVVKDEESFEFVIEAGALMLADNGVCCIDEFDKMDLKDQVAIHEAMEQQTISITKAGVKATLNARASILAAANPVNGRYDRSRPLKYNVQMSAPIMSRFDLFFVLVDECNEVTDYAIARRILDNHRAISEHTERDSVYKIDDIKKYIAFARCFKPKISDKAAETLVREYKKLRMSDSNNAATSSWRITVRQLESLVRLSEALARLHCGKEVLVEHVEKAAELLNKSIVRVEQPDIALDDDDFDNNIMVVEADKENQRGDDSMDHDGEKENAPKIDIAKLKISFKEYKQLSDVLVLHMRSDEDNQGEDEYDGVKQSALVEWYLSTIEADLETEEDFNVQKTICERVIHRLIHQDHVLLEVEQGEDPTLCVHPNYVIADE
notes: MCM-6, C. elegans; Subunit of m11, written alone for its interface in the structure; source: S. cerevisiae, purified as part of recombinant CMG

binding result [3]: binds
B3: TIPN-1 (natural protein, C. elegans)
chain: MDEMEDFFENDELDREPSPMGDEAIEDNSGEGGTRRVVEPKLLRTKRLANPRLALNERILTGPKGISALRETLKDFKPNPKDDPYANLEKLMKKYAYWGHLMFPKMKTEDVLNRVETLGTRRQVKVFMIKHRLGETGEDSEHEEQENQKNGIIDDGASDNDDDLFKDLPEKEVTTEKAKNSEKSDQKTAEIDENVEEEYRMMEEERLREEQEAKEAADEDALMEDFGDMNNDW
notes: TIPN-1, C. elegans; Chain of m13, written alone; source: S. cerevisiae, purified as part of the TIM-1_TIPN-1 complex

binding result [3]: binds
B4: MCM-2 (natural protein, C. elegans)
chain: MADRANNDDDVDRQPLPIADDADDDVDGIDEMFNNEDEDPEDEEGENLFGDDMERDYREQPELDQYSESGMDDASDVGSLSVSARRAAEREMAQRDQLLDDDALMYEDGDSEEVDTRRRGRGRRGRGDAADDDSVPMEEEDIPVDILENIRGRTIRDHVSDEAVAKEIERRFKNFLRSFHEPGNKQTKYIQMIKSMAADNRESLEVSFTDLSDDNGEQNISYFLPEAPNEMLAIMDRAATEVVMNMYPFYSRVCNEIKVRISQLPVEEDIRMLRQVHLNMLIRTAGVVTIASGILPQLAVVKYDCVACGYLLGPFVQQNDEEVRPTICPSCQGKGPFELNVENTVYHNYQRITMQESPNKVAAGRLPRSKDVILLGDLCDSCKPGDEIEVTGVYTNNFDGSLNYKQGFPVFNTLIHANHITNKDKMASDQLTDEDIKAIRELSQDPNISQRVFSSIAPSIYGHDDVKRAIALALFRGEAKNPGAKHRLRGDINVLLCGDPGTAKSQFLRYAAHIAPRSVLTTGQGASAVGLTAYVQRHPVTREWTLEAGAMVLADKGVCLIDEFDKMSDQDRTSIHEAMEQQSISISKAGIVTSLHARCTVIAASNPIGGRYNPTRTFAENVDLTEPILSRFDVLCVIRDSVDSVEDERLAKFVVGNHRTHHPDAKKIVKEGDELEEDQMDERTGVRLIPQDLLRKYIIYAREKCHPTLPEQHSEKFSNIFAQMRKESMATGSVAITVRHVESMIRLSEAHAKLHLRSYVNDEDCAAAIRVMLESFVNTQKASIMRMMKKTFSRHLTENRSANELLLFILKQLIRQQMHYATARAAAGTILQSVTIPESEFIEKAQQLRIENVKPFYTSEIFASNNFLYDPSKKTIVQEIF
notes: MCM-2, C. elegans; Subunit of m11, written alone for its contacts in the structure; source: S. cerevisiae, purified as part of recombinant CMG
